Source: article PMC6450724 (Molecular cell, 2019)
Read-outs that look alike come from different tables or passages of the source.

Key:
[1] = molecular target: DnaC (with DnaB^KAEA and M13 ssDNA) (Escherichia coli, UniProt P0AEF0); assay: coupled pyruvate kinase/lactate dehydrogenase ATPase assay, A340; assay type: biochemical; conditions: DnaB K236A/E262A and M13 ssDNA present; 10 mM MgCl2, pH 7.5, 37 °C
[2] = molecular target: E. coli DnaB replicative helicase, wild type (E. coli) (UniProt P0ACB0); assay: cryo-EM structure
[3] = molecular target: E. coli DnaB replicative helicase, wild type (E. coli) (UniProt P0ACB0); assay: cryo-EM structure; remark: listed apart in the source
[4] = molecular target: the molecule itself; assay: cryo-EM structure

With `Nc1ncnc2c1ncn2[C@@H]1O[C@H](COP(=O)(O)OP(=O)(O)OP(=O)(O)O)[C@@H](O)[C@H]1O` [ATP] the Km [1] was “DnaC follows apparent Michaelis-Menten behavior”.

For “E. coli DnaB replicative helicase, wild type (from UniProt P0ACB0 1-471) (enzyme)”, the stoichiometry N [2] was 6 and the stoichiometry N [3] was 6.

B1: E. coli DnaC helicase loader, wild type (enzyme, UniProt P0AEF0 1-245, looked up)
chain: MKNVGDLMQRLQKMMPAHIKPAFKTGEELLAWQKEQGAIRSAALERENRAMKMQRTFNRSGIRPLHQNCSFENYRVECEGQMNALSKARQYVEEFDGNIASFIFSGKPGTGKNHLAAAICNELLLRGKSVLIITVADIMSAMKDTFRNSGTSEEQLLNDLSNVDLLVIDEIGVQTESKYEKVIINQIVDRRSSSKRPTGMLTNSNMEEMTKLLGERVMDRMRLGNSLWVIFNWDSYRSRVTGKEY
In the case of B1, the “stoichiometry N” value [4] is reported as 6.
